Experimental data taken from patent publication US9708383 (Novo Nordisk, dated 2017).
*1 amine or outer side, *2 acyl side, *3 side chain or, on linkers, in order; H or OH if unused. Where no end group is shown, it is not given here. Side-chain parts run from the residue outwards. [ ]: non-standard residue; d: D form. The star is where a group is joined. Decanoyl(10-(4-HOOC-PhO)) = O=C(O)c1ccc(OCCCCCCCCCC(=O)*)cc1; d(γGlu) = O=C(O)[C@@H](CCC(=O)[*:2])N[*:1]; C16 diacid = O=C(O)CCCCCCCCCCCCCCC(=O)*; γGlu = O=C(O)[C@H](CCC(=O)[*:2])N[*:1]; 13‑carboxytridecanoyl = C14 diacid; AEEA = NCCOCCOCC(=O)O; Aib = CC(C)(N)C(=O)O

Columns and labels:
[1] = target: T1, human GLP-1 receptor (human, UniProt P43220 24-463); experiment: SPA, 2.0% vs 0.005% HSA
T1 construct: whole, on cells; Used as purified membranes of the transfected hamster cells, not whole cells; also called hGLP-1
Protocol: (§1) A shift in the binding affinity, $IC50$, is an indication that the derivative in question binds to albumin, and thereby a prediction of a potential protracted pharmacokinetic profile of the derivative in question in animal models.
(§2) 25 ul (microliter) of test compounds are added to Optiplate. HSA ("high albumin" experiment containing 2% HSA), or buffer ("low albumin" experiment containing 0.005% HSA), was added (50 ul). 5-10 µg protein/sample was added (50 ul) corresponding to 0.1-0.2 mg protein/ml (to be preferably optimised for each membrane preparation). SPA-particles (Wheatgerm agglutinin SPA beads, Perkin Elmer, #RPNQ0001) were added in an amount of 0.5 mg/well (50 ul). […] The plates were sealed with PlateSealer and incubated for 120 minutes at 30° C. while shaking. The plates were centrifuged (1500 rpm, 10 min) and counted in Topcounter.

[2] = target: T1, human GLP-1 receptor; experiment: SPA, displacement of 125I-GLP-1(7-36)NH2, 0.005% HSA
Protocol: as §1, §2

| Binder | ratio IC50 high HSA/IC50 low HSA [1] | IC50 [2] [µM] |
| --- | --- | --- |
| H[Aib]EGTFTSDVSK([AEEA-AEEA-γGlu-13‑carboxytridecanoyl])YLEEQAAREFIK([AEEA-AEEA-γGlu-13‑carboxytridecanoyl])WLVRGRG [GLP-1 derivative of Example 51: [Aib8,Lys18,Glu22,Arg26,Lys30,Arg34]-GLP-1-(7-37)-peptide] | > 1 | < 1 |
| H[Aib]EGTFTSDVSKYLEGQAAVKFIAWLVRGRG (not fully specified (residues 12, 21), also called Chem. 87) [GLP-1 derivative of Example 68: [Aib8,Lys18,Val26,Lys27,Arg34]-GLP-1-(7-37)-peptide] | > 1 | < 1 |
| H[Aib]EGTFTSDVSK([AEEA-AEEA-γGlu-13‑carboxytridecanoyl])YLEEQAAREFIAK([AEEA-AEEA-γGlu-13‑carboxytridecanoyl])LVRGRG [GLP-1 derivative of Example 73: [Aib8,Lys18,Glu22,Arg26,Lys31,Arg34]-GLP-1-(7-37)-peptide] | > 1 | < 1 |
| H[Aib]EGTFTSDVSK([AEEA-AEEA-γGlu-13‑carboxytridecanoyl])YLEEQAVREFIAK([AEEA-AEEA-γGlu-13‑carboxytridecanoyl])LVRGRG [GLP-1 derivative of Example 74: [Aib8,Lys18,Glu22,Val25,Arg26,Lys31,Arg34]-GLP-1-(7-37)-peptide] | > 1 | < 1 |
| H[Aib]EGTFTSDVSK([AEEA-AEEA-γGlu-Decanoyl(10-(4-HOOC-PhO))])YLEEQAVREFIAK([AEEA-AEEA-γGlu-Decanoyl(10-(4-HOOC-PhO))])LVRGRG [GLP-1 derivative of Example 76: [Aib8,Lys18,Glu22,Val25,Arg26,Lys31,Arg34]-GLP-1-(7-37)-peptide] | > 1 | < 1 |
| H[Aib]EGTFTSDVSK([AEEA-AEEA-γGlu-Decanoyl(10-(4-HOOC-PhO))])YLEEQAAK([AEEA-AEEA-γGlu-Decanoyl(10-(4-HOOC-PhO))])EFIAWLVRGRG [GLP-1 derivative of Example 88: [Aib8,Lys18,Glu22,Arg34]-GLP-1-(7-37)-peptide] | > 1 | < 1 |
| H[Aib]EGTFTSDVSK([AEEA-AEEA-γGlu-Decanoyl(10-(4-HOOC-PhO))])YLEGQAAK([AEEA-AEEA-γGlu-Decanoyl(10-(4-HOOC-PhO))])EFIAWLVQGRG [GLP-1 derivative of Example 92: [Aib8,Lys18,Gln34]-GLP-1-(7-37)-peptide] | > 1 | < 1 |
| HXEGTFTSDVSKYLEGQAAKEFIAWLVRGRG (Aib8; Lys18 and Lys26 each Nε-acylated with 10-(4-carboxyphenoxy)decanoyl-gGlu-OEG-OEG) [GLP-1 derivative of Example 93: [Aib8,Lys18,Arg34]-GLP-1-(7-37)-peptide] | > 1 | < 1 |
| H[Aib]EGTFTSDVSK([AEEA-AEEA-γGlu-13‑carboxytridecanoyl])YLEEQAAK([AEEA-AEEA-γGlu-13‑carboxytridecanoyl])EFIAWLVRGRG [GLP-1 derivative of Example 100: [Aib8,Lys18,Glu22,Arg34]-GLP-1-(7-37)-peptide] | > 1 | < 1 |
| H[Aib]EGTFTSDVSK([AEEA-AEEA-γGlu-γGlu-γGlu-13‑carboxytridecanoyl])YLEEQAVREFIAK([AEEA-AEEA-γGlu-γGlu-γGlu-13‑carboxytridecanoyl])LVRGRG [GLP-1 derivative of Example 102: [Aib8,Lys18,Glu22,Val25,Arg26,Lys31,Arg34]-GLP-1-(7-37)-peptide] | > 1 | < 1 |
| HXEGTFTSDVSKYLEGQAAKEFIAWLVRGRG (Aib8; Lys18 and Lys26 each Nε-acylated with 13-carboxytridecanoyl-gGlu-gGlu-OEG-OEG) [GLP-1 derivative of Example 103: [Aib8,Lys18,Arg34]-GLP-1-(7-37)-peptide] | > 1 | < 1 |
| HXEGTFTSDVSKYLEGQAAKEFIAWLVRGRG (Aib8; Lys18 and Lys26 each Nε-acylated with 11-carboxyundecanoyl-gGlu-gGlu-OEG-OEG) [GLP-1 derivative of Example 108: [Aib8,Lys18,Arg34]-GLP-1-(7-37)-peptide] | > 1 | < 1 |
| H[Aib]EGTFTSDVSK([AEEA-AEEA-γGlu-13‑carboxytridecanoyl])YLEGQAVREFIAK([AEEA-AEEA-γGlu-13‑carboxytridecanoyl])LVRGRG [GLP-1 derivative of Example 112: [Aib8,Lys18,Val25,Arg26,Lys31,Arg34]-GLP-1-(7-37)-peptide] | > 1 | < 1 |
| HXEGTFTSDVSKYLEGQAAKEFIAWLVRGRG (Aib8; Lys18 and Lys26 each Nε-acylated with 10-(4-carboxyphenoxy)decanoyl-OEG-OEG-gGlu) [GLP-1 derivative of Example 115: [Aib8,Lys18,Arg34]-GLP-1-(7-37)-peptide] | > 1 | < 1 |
| H[Aib]EGTFTSDVSK([AEEA-AEEA-AEEA-AEEA-γGlu-13‑carboxytridecanoyl])YLEEQAVREFIAK([AEEA-AEEA-AEEA-AEEA-γGlu-13‑carboxytridecanoyl])LVRGRG [GLP-1 derivative of Example 130: [Aib8,Lys18,Glu22,Val25,Arg26,Lys31,Arg34]-GLP-1-(7-37)-peptide] | > 1 | < 1 |
| H[Aib]EGTFTSDVSK([AEEA-AEEA-AEEA-AEEA-AEEA-AEEA-γGlu-13‑carboxytridecanoyl])YLEEQAVREFIAK([AEEA-AEEA-AEEA-AEEA-AEEA-AEEA-γGlu-13‑carboxytridecanoyl])LVRGRG [GLP-1 derivative of Example 131: [Aib8,Lys18,Glu22,Val25,Arg26,Lys31,Arg34]-GLP-1-(7-37)-peptide] | > 1 | < 1 |
| H[Aib]EGTFTSDVSK([AEEA-AEEA-γGlu-γGlu-C16 diacid])YLEEQAVREFIAK([AEEA-AEEA-γGlu-γGlu-C16 diacid])LVRGRG [GLP-1 derivative of Example 134: [Aib8,Lys18,Glu22,Val25,Arg26,Lys31,Arg34]-GLP-1-(7-37)-peptide] | > 1 | < 1 |
| H[Aib]EGTFTSDVSK([AEEA-AEEA-AEEA-AEEA-γGlu-C16 diacid])YLEEQAVREFIAK([AEEA-AEEA-AEEA-AEEA-γGlu-C16 diacid])LVRGRG-NH2 (N-terminus assumed; SMILES CC[C@H](C)[C@H](NC(=O)[C@H](Cc1ccccc1)NC(=O)[C@H](CCC(=O)O)NC(=O)[C@H](CCCNC(=N)N)NC(=O)[C@@H](NC(=O)[C@H](C)NC(=O)[C@H](CCC(N)=O)NC(=O)[C@H](CCC(=O)O)NC(=O)[C@H](CCC(=O)O)NC(=O)[C@H](CC(C)C)NC(=O)[C@H](Cc1ccc(O)cc1)NC(=O)[C@H](CCCCNC(=O)COCCOCCNC(=O)COCCOCCNC(=O)COCCOCCNC(=O)COCCOCCNC(=O)CC[C@H](NC(=O)CCCCCCCCCCCCCCC(=O)O)C(=O)O)NC(=O)[C@H](CO)NC(=O)[C@@H](NC(=O)[C@H](CC(=O)O)NC(=O)[C@H](CO)NC(=O)[C@@H](NC(=O)[C@H](Cc1ccccc1)NC(=O)[C@@H](NC(=O)CNC(=O)[C@H](CCC(=O)O)NC(=O)C(C)(C)NC(=O)[C@@H](N)Cc1c[nH]cn1)[C@@H](C)O)[C@@H](C)O)C(C)C)C(C)C)C(=O)N[C@@H](C)C(=O)N[C@@H](CCCCNC(=O)COCCOCCNC(=O)COCCOCCNC(=O)COCCOCCNC(=O)COCCOCCNC(=O)CC[C@H](NC(=O)CCCCCCCCCCCCCCC(=O)O)C(=O)O)C(=O)N[C@@H](CC(C)C)C(=O)N[C@H](C(=O)N[C@@H](CCCNC(=N)N)C(=O)NCC(=O)N[C@@H](CCCNC(=N)N)C(=O)NCC(N)=O)C(C)C) | > 1 | < 1 |
| H[Aib]EGTFTSDVSKYLEEQAVREFIAKLVRGRG (not fully specified (residues 12, 25)) [GLP-1 derivative of Example 137: [Aib8,Lys18,Glu22,Val25,Arg26,Lys31,Arg34]-GLP-1-(7-37)-peptide] | > 1 | < 1 |
| H[Aib]EGTLTSDVSK([AEEA-AEEA-γGlu-Decanoyl(10-(4-HOOC-PhO))])YLEGQAAK([AEEA-AEEA-γGlu-Decanoyl(10-(4-HOOC-PhO))])EFIAWLVQGRG [GLP-1 derivative of Example 139: [Aib8,Leu12,Lys18,Gln34]-GLP-1-(7-37)-peptide] | > 1 | < 1 |
| H[Aib]EGTFTSDVSK([AEEA-AEEA-γGlu-13‑carboxytridecanoyl])YLEGQAAK([AEEA-AEEA-γGlu-13‑carboxytridecanoyl])EFIAWLVQGRG [GLP-1 derivative of Example 141: [Aib8,Lys18,Gln34]-GLP-1-(7-37)-peptide] | > 1 | < 1 |
| H[Aib]EGTFTSDVSK([AEEA-AEEA-γGlu-Decanoyl(10-(4-HOOC-PhO))])YLEGQAAK([AEEA-AEEA-γGlu-Decanoyl(10-(4-HOOC-PhO))])EFIAWLVHGRG [GLP-1 derivative of Example 142: [Aib8,Lys18,His34]-GLP-1-(7-37)-peptide] | > 1 | < 1 |
| H[Aib]EGTFTSDVSK([AEEA-AEEA-AEEA-AEEA-AEEA-AEEA-γGlu-13‑carboxytridecanoyl])YLEEQAVREFIAK([AEEA-AEEA-AEEA-AEEA-AEEA-AEEA-γGlu-13‑carboxytridecanoyl])LVRGRG [GLP-1 derivative of Example 144: [Aib8,Lys18,Glu22,Val25,Arg26,Lys31,Arg34]-GLP-1-(7-37)-peptide] | > 1 | < 1 |
| H[Aib]EGTFTSDVSK([AEEA-γGlu-AEEA-13‑carboxytridecanoyl])YLEEQAVREFIAK([AEEA-γGlu-AEEA-13‑carboxytridecanoyl])LVRGRG [GLP-1 derivative of Example 145: [Aib8,Lys18,Glu22,Val25,Arg26,Lys31,Arg34]-GLP-1-(7-37)-peptide] | > 1 | < 1 |
| H[Aib]EGTFTSDVSK([AEEA-γGlu-AEEA-C16 diacid])YLEEQAVREFIAK([AEEA-γGlu-AEEA-C16 diacid])LVRGRG [GLP-1 derivative of Example 146: [Aib8,Lys18,Glu22,Val25,Arg26,Lys31,Arg34]-GLP-1-(7-37)-peptide] | > 1 | < 1 |
| H[Aib]EGTFTSDVSK([AEEA-AEEA-d(γGlu)-γGlu-13‑carboxytridecanoyl])YLEEQAAK([AEEA-AEEA-d(γGlu)-γGlu-13‑carboxytridecanoyl])EFIAWLVQGRG [GLP-1 derivative of Example 105: [Aib8,Lys18,Glu22,Gln34]-GLP-1-(7-37)-peptide] | > 1 | < 1 |
